From article doi:10.1101/2025.09.04.674342, “Tandem association of CLOCK:BMAL1 complexes on DNA enables recruitment of CBP/p300 through multivalent interactions” (bioRxiv, 2025)

B1: CBP KIX domain (residues 586–672) (domain or fragment)
chain: not shown
notes: CBP KIX domain, mouse, UniProt P45481, residues 586–672; tagless; Plasmid was a gift from Peter Wright; Used at natural abundance or uniformly 15N-labelled; also called WT KIX; 15N CBP KIX; source: E. coli Rosetta (DE3), purified (Ni-NTA through native histidines, size exclusion)
B2: BMAL1 TAD L606A/L607A (residues 579–626) (domain or fragment)
chain: not shown
notes: numbers count on: isoform Q9WTL8-4; Used at natural abundance or 15N-labelled; also called L606A/L607A TAD mutant; 15N BMAL1 TAD L606A/L607A; source: E. coli Rosetta (DE3), purified (Ni-NTA, TEV cleavage, Superdex 75); not shown: His6-NusA-XL (HNXL), N-terminal, cleaved
B3: [5,6] TAMRA-labeled BMAL1 minimal TAD peptide (residues 594–626), WT (peptide)
peptide: not shown
modifications: 5,6-TAMRA on the N-terminus; free carboxyl C-terminus
notes: BMAL1 minimal TAD with helix and switch regions, residues 594–626; numbers count on: isoform Q9WTL8-4; also called [5,6]; TAMRA-BMAL1 TAD probe; native TAD probe; source: synthetic peptide (Bio-Synthesis, 95% purity)
B4: trans-locked BMAL1 switch peptide P625A (FSDLPWAL) (peptide)
peptide: FSDLPWAL
notes: numbers count on: isoform Q9WTL8-4; All trans; also called P625A switch; trans-locked switch; source: synthetic peptide (solid phase, Fmoc chemistry; C18 HPLC)
B5: CLOCK:BMAL1 bHLH-PAS-AB heterodimer (complex)
chain 1: VEEDDKDKAKRVSRNKSEKKRRDQFNVLIKELGSMLPGNARKMDKSTVLQKSIDFLRKHKETTAQSDASEIRQDWKPTFLSNEEFTQLMLEALDGFFLAIMTDGSIIYVSESVTSLLEHLPSDLVDQSIFNFIPEGEHSEVYKILSTHLLESDSLTPEYLKSKNQLEFCCHMLRGTIDPKEPSTYEYVRFIGNFKSLTSVSTSTHNGFEGTIQRTHRPSYEDRVCFVATVRLATPQFIKEMCTVEEPNEEFTSRHSLEWKFLFLDHRAPPIIGYLPFEVLGTSGYDYYHVDDLENLAKCHEHLMQYGKGKSCYYRFLTKGQQWIWLQTHYYITYHQWNSRPEFIVCTHTVVSYAEVRAERRRELGIEESL
chain 2: not shown
notes: CLOCK bHLH PAS-AB, mouse, UniProtKB O08785, residues 26–395; BMAL1 bHLH PAS-AB, mouse, UniProtKB Q9WTL8-4, residues 62–441; numbers count on: isoform Q9WTL8-4; Purified on Ni-NTA and cleaved with His-TEV; also called CLOCK:BMAL1 protomer; source: insect cells (Spodoptera frugiperda or Hi5), purified (Ni-NTA, TEV cleavage, heparin, Superdex 200); copies: 1 + 1
B6: CBP TAZ2 domain (residues 1764–1855; C1776A, C1784A, C1827A, C1828A) (domain or fragment, mouse, UniProt P45481 1764-1855, looked up)
chain: SPQESRRLSIQRAIQSLVHAAQCRNANCSLPSCQKMKRVVQHTKGCKRKTNGGCPVCKQLIALAAYHAKHCQENKCPVPFCLNIKHKLRQQQ
notes: CBP TAZ2 domain, mouse, UniProt P45481, residues 1764–1855, with four cysteine to alanine mutations that increase solubility and stability; source: E. coli (BL21), purified (amylose sepharose, S-sepharose, Superdex 75)
B7: BMAL1 TAD (residues 579–626) (domain or fragment)
chain: not shown
notes: numbers count on: isoform Q9WTL8-4; Used at natural abundance or uniformly 15N-labelled; also called 15N BMAL1 TAD; source: E. coli Rosetta (DE3), purified (Ni-NTA, TEV cleavage, Superdex 75); not shown: His6-NusA-XL (HNXL), N-terminal, cleaved
B8: BMAL1 linker-switch peptide (residues 613–626) (peptide, UniProt Q9WTL8-4 613-626, looked up)
peptide: LGGPVDFSDLPWPL
notes: BMAL1, mouse, residues 613–626 (linker and switch of the TAD); numbers count on: isoform Q9WTL8-4; source: synthetic peptide (Pierce, 95% purity)

Legend:
[1] = molecular target: B7; test: ITC; 220–230 μM CBP KIX WT or 3mut titrated into 20–25 μM BMAL1 TAD WT or L606A/L607A; 25°C; 10 mM MES pH 6.5, 50 mM NaCl; one-site model; conditions: both partners purified
[2] = molecular target: B6; test: NMR titration; 15N-1H HSQC of 100 μM 15N BMAL1 TAD WT or L606A/L607A with stepwise additions of CBP KIX (WT or 3mut), TAZ1 or TAZ2; 25°C; 10 mM MES pH 6.5, 50 mM NaCl, 10% D2O; KD from fits of concentration-dependent CSPs, apparent; conditions: both partners purified
[3] = molecular target: B6; test: fluorescence polarisation; CBP KIX, TAZ1 or TAZ2 titrated onto [5,6] TAMRA-labeled BMAL1 minimal TAD probes (25 nM in the legend, 50 nM in the methods); 10 mM MES pH 6.5, 50 mM NaCl, 0.05% Tween-20; room temperature; one-site specific binding with Hill coefficient; apparent KDs; conditions: both partners purified
[4] = molecular target: B1; test: NMR titration; 15N-1H HSQC of 100 μM 15N CBP KIX with stepwise additions of natural abundance BMAL1 TAD or truncated peptides; 25°C; 10 mM MES pH 6.5, 50 mM NaCl, 10% D2O; conditions: both partners purified
[5] = molecular target: the molecule itself; test: cryo-EM structure; two CLOCK:BMAL1 bHLH-PAS-AB protomers on a nucleosome with tandem E-boxes 6 bp apart (SHL +3.9/+5.1); GraFix glutaraldehyde cross-linked; 4.1 Å overall, 8–12 Å in the PAS region
[6] = molecular target: B3; test: fluorescence polarisation; CBP KIX, TAZ1 or TAZ2 titrated onto [5,6] TAMRA-labeled BMAL1 minimal TAD probes (25 nM in the legend, 50 nM in the methods); 10 mM MES pH 6.5, 50 mM NaCl, 0.05% Tween-20; room temperature; one-site specific binding with Hill coefficient; apparent KDs; conditions: both partners purified
[7] = molecular target: B1; test: ITC; 220–230 μM CBP KIX WT or 3mut titrated into 20–25 μM BMAL1 TAD WT or L606A/L607A; 25°C; 10 mM MES pH 6.5, 50 mM NaCl; one-site model; conditions: both partners purified

Binder: B1
- stoichiometry N [1]: 0.8 to 1.1

Binder: B2
- binding result [2]: binds

Binder: B3
- binding result [3]: binds

Binder: B4
- binding result [4]: binds

Binder: B5
- binding result [5]: binds

Binder: B6
- fold lower affinity than TAZ1 [6]: ~20 fold

Binder: B7
- Kd [7]: ~2000 nM
- binding result [2]: binds

Binder: B8
- binding result [4]: binds
